# Measurements published in US20240101645A1 (HENRY M JACKSON FOUNDATION FOR THE ADVANCEMENT OF MILITARY …, published 2024).
# T1: HCoV-OC43 spike antigens (bead panel) (HCoV-OC43, UniProt P36334 14-1297)
# T1 sequence: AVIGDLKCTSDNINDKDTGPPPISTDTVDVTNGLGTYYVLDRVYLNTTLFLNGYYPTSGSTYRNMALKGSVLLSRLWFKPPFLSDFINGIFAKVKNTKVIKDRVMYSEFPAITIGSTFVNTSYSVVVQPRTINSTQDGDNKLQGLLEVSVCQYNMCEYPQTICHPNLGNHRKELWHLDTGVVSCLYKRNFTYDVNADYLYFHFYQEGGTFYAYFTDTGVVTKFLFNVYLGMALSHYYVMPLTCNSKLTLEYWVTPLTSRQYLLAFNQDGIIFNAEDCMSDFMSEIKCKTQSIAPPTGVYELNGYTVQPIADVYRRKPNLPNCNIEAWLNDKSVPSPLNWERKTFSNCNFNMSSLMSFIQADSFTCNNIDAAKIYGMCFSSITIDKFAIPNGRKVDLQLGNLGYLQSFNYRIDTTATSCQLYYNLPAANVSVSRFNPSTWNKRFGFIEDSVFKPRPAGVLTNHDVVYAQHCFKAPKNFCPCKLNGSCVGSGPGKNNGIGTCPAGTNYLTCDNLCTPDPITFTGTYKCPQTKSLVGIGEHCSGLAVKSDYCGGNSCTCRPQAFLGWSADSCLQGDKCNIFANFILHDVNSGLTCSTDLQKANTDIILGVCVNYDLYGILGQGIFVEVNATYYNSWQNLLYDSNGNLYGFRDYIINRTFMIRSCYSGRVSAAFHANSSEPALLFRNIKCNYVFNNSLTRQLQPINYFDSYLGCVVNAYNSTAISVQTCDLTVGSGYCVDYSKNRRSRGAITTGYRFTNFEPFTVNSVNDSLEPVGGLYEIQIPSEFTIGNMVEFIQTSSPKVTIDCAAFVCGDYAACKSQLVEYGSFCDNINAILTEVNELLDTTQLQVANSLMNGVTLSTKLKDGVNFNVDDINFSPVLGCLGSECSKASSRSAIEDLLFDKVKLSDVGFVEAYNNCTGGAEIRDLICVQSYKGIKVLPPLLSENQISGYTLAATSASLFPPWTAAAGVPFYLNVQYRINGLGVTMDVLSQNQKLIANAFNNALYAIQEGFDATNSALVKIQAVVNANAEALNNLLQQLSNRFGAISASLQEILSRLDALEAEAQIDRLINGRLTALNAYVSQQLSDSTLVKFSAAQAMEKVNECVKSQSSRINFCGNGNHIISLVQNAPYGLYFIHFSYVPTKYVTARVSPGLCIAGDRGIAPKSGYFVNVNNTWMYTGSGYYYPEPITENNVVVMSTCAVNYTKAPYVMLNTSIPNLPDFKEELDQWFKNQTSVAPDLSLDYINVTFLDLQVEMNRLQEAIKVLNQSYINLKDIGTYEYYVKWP
# T2: MERS-CoV spike antigens (bead panel) (MERS-CoV, UniProt K9N5Q8 18-1296)
# T2 sequence: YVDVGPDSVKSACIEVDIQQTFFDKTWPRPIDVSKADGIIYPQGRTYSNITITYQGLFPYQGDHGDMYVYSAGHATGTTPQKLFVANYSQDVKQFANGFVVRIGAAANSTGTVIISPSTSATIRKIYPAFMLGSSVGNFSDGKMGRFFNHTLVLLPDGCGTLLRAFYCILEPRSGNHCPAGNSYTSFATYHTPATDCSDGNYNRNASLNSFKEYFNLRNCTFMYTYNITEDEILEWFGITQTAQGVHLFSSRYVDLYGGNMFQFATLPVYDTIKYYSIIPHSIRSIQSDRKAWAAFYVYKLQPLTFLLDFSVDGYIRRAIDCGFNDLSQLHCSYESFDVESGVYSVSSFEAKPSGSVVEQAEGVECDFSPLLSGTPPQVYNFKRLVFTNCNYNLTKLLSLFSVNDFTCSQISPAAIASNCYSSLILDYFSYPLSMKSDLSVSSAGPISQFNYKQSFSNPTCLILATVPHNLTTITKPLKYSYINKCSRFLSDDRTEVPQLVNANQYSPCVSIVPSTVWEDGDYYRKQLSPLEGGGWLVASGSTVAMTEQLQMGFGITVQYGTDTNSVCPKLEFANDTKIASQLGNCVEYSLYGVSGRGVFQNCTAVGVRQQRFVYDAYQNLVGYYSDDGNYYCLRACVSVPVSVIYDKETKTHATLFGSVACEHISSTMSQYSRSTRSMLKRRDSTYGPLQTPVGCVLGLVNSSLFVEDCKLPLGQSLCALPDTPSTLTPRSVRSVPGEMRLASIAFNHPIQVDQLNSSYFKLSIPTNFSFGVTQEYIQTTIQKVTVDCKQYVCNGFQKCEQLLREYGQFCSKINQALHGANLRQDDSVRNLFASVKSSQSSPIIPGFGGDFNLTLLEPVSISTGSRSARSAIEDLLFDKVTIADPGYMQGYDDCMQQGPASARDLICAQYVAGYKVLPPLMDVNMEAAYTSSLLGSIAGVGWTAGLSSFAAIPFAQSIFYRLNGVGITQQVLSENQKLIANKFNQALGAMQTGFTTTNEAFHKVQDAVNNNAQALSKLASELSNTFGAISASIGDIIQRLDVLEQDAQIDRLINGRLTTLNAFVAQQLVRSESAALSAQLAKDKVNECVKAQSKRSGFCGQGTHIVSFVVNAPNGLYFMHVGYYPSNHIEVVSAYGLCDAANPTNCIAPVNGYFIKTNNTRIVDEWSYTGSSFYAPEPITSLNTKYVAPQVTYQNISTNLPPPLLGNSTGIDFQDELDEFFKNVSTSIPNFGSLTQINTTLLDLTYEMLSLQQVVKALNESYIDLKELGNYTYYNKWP
# T3: HCoV-229E spike antigens (bead panel) (HCoV-229E, UniProt P15423 16-1115)
# T3 sequence: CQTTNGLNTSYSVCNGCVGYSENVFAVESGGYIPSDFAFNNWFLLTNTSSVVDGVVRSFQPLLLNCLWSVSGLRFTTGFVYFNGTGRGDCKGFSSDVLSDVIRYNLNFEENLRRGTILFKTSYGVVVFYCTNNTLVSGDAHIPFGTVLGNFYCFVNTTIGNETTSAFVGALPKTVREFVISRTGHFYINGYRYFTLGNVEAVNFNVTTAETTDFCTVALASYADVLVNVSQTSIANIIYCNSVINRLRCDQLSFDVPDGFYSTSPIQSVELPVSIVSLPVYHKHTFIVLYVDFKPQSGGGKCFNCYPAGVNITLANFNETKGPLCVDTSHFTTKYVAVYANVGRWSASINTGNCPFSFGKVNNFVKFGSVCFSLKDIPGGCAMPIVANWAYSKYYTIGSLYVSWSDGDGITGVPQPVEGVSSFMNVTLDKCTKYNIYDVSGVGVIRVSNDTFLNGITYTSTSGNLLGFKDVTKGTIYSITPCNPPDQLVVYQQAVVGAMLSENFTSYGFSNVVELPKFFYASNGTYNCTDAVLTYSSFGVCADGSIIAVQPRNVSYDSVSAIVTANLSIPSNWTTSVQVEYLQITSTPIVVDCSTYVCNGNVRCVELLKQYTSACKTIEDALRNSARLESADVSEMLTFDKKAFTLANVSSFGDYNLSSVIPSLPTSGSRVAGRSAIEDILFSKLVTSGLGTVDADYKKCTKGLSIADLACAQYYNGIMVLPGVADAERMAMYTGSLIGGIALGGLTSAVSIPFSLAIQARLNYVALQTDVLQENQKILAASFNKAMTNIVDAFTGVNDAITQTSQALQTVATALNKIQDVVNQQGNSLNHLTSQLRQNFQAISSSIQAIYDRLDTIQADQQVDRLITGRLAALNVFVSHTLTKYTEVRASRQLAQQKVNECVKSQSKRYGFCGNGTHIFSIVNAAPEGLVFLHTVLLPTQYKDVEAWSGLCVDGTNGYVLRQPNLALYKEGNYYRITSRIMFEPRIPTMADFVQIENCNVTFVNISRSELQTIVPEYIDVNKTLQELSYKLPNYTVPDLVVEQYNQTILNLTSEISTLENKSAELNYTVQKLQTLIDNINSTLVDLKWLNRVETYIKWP
# T4: HCoV-HKU1 spike antigens (bead panel) (HCoV-HKU1, UniProt Q5MQD0 13-1300)
# T4 sequence: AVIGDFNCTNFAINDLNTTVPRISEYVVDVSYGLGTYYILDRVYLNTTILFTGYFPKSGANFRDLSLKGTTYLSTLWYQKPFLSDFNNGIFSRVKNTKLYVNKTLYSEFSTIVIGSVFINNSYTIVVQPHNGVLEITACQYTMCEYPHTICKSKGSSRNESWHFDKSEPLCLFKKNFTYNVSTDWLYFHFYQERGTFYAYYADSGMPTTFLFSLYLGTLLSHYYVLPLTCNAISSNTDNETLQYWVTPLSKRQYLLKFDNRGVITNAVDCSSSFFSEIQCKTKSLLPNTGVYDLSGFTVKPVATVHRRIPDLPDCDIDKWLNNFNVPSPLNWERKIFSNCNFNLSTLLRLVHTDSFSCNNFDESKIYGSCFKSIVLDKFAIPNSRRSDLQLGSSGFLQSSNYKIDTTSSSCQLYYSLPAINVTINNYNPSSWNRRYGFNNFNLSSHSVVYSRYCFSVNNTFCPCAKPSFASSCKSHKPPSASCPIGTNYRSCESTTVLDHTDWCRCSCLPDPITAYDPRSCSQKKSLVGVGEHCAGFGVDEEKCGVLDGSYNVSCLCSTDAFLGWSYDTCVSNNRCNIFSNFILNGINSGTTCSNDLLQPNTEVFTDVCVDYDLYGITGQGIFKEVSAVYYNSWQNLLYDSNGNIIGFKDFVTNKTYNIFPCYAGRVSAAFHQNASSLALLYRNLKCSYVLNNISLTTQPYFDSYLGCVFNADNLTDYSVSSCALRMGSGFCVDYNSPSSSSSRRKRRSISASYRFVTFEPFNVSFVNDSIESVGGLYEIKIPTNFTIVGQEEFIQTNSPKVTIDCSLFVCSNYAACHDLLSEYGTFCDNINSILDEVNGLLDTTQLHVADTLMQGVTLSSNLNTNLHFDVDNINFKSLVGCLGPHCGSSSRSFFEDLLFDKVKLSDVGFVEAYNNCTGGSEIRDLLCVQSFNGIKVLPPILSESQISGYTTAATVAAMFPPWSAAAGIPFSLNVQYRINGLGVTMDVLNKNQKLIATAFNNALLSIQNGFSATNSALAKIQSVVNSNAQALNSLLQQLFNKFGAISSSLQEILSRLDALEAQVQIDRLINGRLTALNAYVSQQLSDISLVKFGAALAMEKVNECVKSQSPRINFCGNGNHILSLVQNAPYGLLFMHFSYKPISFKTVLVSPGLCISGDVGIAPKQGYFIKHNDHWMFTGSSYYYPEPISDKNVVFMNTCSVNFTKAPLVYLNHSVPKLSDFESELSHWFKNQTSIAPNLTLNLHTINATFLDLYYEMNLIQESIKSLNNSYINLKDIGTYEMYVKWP
# B1: COV_2173 (antibody, V domains shown)
# VH: QVQLQESGPGLVKPSETLSLTCSVSGDSISSSDYSWGWIRQPPGKGLEWIGTIYYIKNTYYNPSLRSRVTLSVDTSKNLFSLKLSSVTAADTAVYYCARERPPFDVVVVPAARPYNWFDPWGLGTLVIVSS
# VL: QSVLMQPPSVSGAPGQRVTISCTGSSSNIGAGYDVHWYQQLPGTAPKLLIYGNNNRPSGVPDRFSGSKSGTSASLAITGLQADDEADYYCQSYDSSLSGSKVFGGGTKLTVL
# notes: human IgG1
# B2: COV_2165 (antibody, V domains shown)
# VH: EVQLVESGGGLVQPGGSLRLSCAASGFTFSSYSMNWVRQAPGKGLEWVSYISSSSSTIYYADYVKGRFTISRDNAKNSLYLQMNSLRAEDRAVYYCARVARRDVAPATIAAYFLDYWGQGTLVTVSS
# VL: EIVLTQSPATLSLSPGERATLSCRASQSLSSYLAWYQQKPGQAPRLLIYDASTRATGIPARFSGSGSGTDFTLTISSLEPEDFAVYYCQQRSTWPRGFTFGPGTKVDIK
# notes: human IgG1
# B3: COV_3103 (antibody, V domains shown)
# VH: EVQLVESGGGLVQPGRSLRLSCVASGFIVENFAMHWVRQAPGKGLEWVSGITWNSASTGYVESVKGRFSISRDNGENSMFLEMNSLRPDDTALYYCVKATGSYWGFPMDVWGQGTTVTVSS
# VL: EIVLTQSPGTLSLSPGEGGTLSCRASQSVRSNYLAWYQRKPGQAPRLLIYATSNRATGIPDRFSGSGSGTDFTLTISRLEPEDFAVYFCQHYGDSPYTFGQGTKLEIKR
# notes: human IgG1
# What was measured:
# [1] = biological target: T5, SARS-CoV-2 S on pseudovirions (Wuhan Hu-1 / IL1/2020, last 18 amino acids removed) (SARS-CoV-2, UniProt P0DTC2 14-1273); test: cell-based or functional assay
# [2] = biological target: T5, SARS-CoV-2 S on pseudovirions (Wuhan …); test: cell-based or functional assay; remark: listed apart in the source
# [3] = biological target: T1, HCoV-OC43 spike antigens (bead panel); test: multiplex bead assay
# [4] = biological target: SARS-CoV-1 spike antigens (bead panel) (SARS-CoV-1, UniProt P59594 14-1195); test: multiplex bead assay
# [5] = biological target: T2, MERS-CoV spike antigens (bead panel); test: multiplex bead assay
# [6] = biological target: T3, HCoV-229E spike antigens (bead panel); test: multiplex bead assay
# [7] = biological target: T4, HCoV-HKU1 spike antigens (bead panel); test: multiplex bead assay
Binder,"Mean IC80, pSV neutralization [1]","IC50, pseudotyped neutralization assay [2]",binding result [3],"Mean IC50, pSV neutralization [1]",binding result [4],binding result [5],binding result [6],binding result [7]
B1,0.01 µg/ml,4 ng/mL,no binding,,,,,
B2,0.04 µg/ml,10 ng/mL,no binding,0.02 µg/ml,no binding,,,
B3,,,,,no binding,no binding,no binding,no binding
